Measurements published in IntAct's records for PubMed 23455607.

Key:
[1] = target: lamp2_rat Lamp2 (UniProt P17046)
[2] = target: lamp2_human LAMP2 (UniProt P13473)
[3] = target: lamp2_human LAMP2 (UniProt P13473); remark: listed apart in the source

Sequence of lamp2_human LAMP2 (P13473 whole entry): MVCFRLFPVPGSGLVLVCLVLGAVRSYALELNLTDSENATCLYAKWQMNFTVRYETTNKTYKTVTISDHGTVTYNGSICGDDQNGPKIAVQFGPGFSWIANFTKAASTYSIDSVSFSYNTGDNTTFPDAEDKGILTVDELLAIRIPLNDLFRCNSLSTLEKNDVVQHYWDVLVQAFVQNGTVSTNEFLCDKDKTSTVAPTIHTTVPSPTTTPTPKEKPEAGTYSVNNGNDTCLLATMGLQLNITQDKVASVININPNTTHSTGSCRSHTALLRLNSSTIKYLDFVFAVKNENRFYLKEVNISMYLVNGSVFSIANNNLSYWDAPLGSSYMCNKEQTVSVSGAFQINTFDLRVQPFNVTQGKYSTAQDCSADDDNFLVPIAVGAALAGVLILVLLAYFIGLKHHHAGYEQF
Sequence of lamp2_rat Lamp2 (P17046 whole entry): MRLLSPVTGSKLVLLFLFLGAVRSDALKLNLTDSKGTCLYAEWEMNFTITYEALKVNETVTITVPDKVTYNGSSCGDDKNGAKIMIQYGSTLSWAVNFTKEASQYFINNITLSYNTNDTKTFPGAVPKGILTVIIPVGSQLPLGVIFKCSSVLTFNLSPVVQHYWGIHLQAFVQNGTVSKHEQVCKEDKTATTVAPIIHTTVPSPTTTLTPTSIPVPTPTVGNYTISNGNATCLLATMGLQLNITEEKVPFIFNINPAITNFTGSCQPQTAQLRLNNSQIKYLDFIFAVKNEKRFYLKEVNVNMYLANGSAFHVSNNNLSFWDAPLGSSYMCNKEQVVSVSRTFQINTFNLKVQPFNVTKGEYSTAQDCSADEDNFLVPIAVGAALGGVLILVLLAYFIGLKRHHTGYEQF

Substance | effect of a mutation on the interaction [1] | effect of a mutation on the interaction [2] | effect of a mutation on the interaction [3]
Leucine-rich repeat serine/threonine-protein kinase 2 (Homo sapiens), Q5S007 G2019S | increasing interaction | increasing interaction | 
Leucine-rich repeat serine/threonine-protein kinase 2 (Homo sapiens), Q5S007 R1441C | increasing interaction |  | increasing interaction
